Test results taken from US20230348603A1 (VERSEAU THERAPEUTICS, published 2023).
One block for each binder: values may come before it.

Columns and labels:
[1] = molecular target: T1, Human VSIG4-L-His (human, UniProt Q9Y279 20-283); assay: SPR (Biacore T200), Fab P.E. 1:5 over immobilised antigen
T1 construct: long isoform ECD with His tag; also called hVSIG4-L
T1 sequence: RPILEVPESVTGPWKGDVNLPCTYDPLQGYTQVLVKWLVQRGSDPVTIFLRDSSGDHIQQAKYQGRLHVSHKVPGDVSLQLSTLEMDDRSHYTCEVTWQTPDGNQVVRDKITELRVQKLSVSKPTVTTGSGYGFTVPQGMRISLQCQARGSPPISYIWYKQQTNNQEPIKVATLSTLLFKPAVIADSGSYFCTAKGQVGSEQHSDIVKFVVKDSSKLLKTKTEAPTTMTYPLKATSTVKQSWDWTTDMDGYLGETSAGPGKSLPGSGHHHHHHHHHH

[2] = molecular target: T2, Human VSIG4-L-Fc (human); assay: blocking ELISA, biotin-C3b on coated hVSIG4-L-Fc
T2 construct: also called hVSIG4-L-Fc; hVSIG4-L

[3] = molecular target: T3, Cynomolgus Monkey VSIG4-L-His (cynomolgus monkey); assay: ELISA, Fab P.E. 1:5 on coated antigen;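 further: mouse Fab P.E. samples in 1% skimmed milk PBS, bound to antigen-coated wells for 1 h at room temperature, read as absorbance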
T3 construct: ECD with His tag; also called cyVSIG4-L; cyno VSIG4-L-His
T3 chain: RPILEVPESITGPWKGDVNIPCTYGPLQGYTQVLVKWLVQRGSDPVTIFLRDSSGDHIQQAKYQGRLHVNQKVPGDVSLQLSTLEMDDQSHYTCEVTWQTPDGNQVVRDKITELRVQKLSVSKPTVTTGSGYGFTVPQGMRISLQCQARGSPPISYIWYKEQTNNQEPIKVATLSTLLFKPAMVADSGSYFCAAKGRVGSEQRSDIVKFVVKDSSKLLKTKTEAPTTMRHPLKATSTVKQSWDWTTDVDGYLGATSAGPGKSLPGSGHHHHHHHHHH

[4] = molecular target: T2, Human VSIG4-L-Fc; assay: ELISA, Fab P.E. 1:5 on coated antigen;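 further: mouse Fab P.E. samples in 1% skimmed milk PBS, bound to antigen-coated wells for 1 h at room temperature, read as absorbance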
[5] = molecular target: T4, Human VSIG4-S-Fc (human); assay: ELISA, Fab P.E. 1:5 on coated antigen;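 further: mouse Fab P.E. samples in 1% skimmed milk PBS, bound to antigen-coated wells for 1 h at room temperature, read as absorbance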
T4 construct: short isoform ECD fused to human Fc1; also called hVSIG4-S

[6] = molecular target: T5, Human VSIG4-L-CHO (human VSIG4 long isoform on CHO-K1 cells) (human, UniProt Q9Y279 20-399); assay: flow cytometry, CHO-K1 cells expressing hVSIG4-L
T5 construct: also called hVSIG4-L (flow cytometry)
T5 sequence: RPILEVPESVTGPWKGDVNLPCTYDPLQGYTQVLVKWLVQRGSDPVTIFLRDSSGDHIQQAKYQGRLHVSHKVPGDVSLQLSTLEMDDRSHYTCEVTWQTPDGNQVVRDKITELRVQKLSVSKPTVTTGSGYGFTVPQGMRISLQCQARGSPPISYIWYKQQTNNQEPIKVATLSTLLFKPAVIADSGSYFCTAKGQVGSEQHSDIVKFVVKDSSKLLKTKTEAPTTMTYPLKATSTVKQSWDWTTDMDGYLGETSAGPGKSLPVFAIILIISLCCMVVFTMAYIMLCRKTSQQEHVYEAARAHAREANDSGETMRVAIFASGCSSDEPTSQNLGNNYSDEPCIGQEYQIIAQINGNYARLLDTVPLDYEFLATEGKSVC

[7] = molecular target: T2, Human VSIG4-L-Fc; assay: BLI binning on hVSIG4-L-Fc, competitor 15C04 first;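 further: normalized to binding of second antibody without first competitor antibody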
[8] = molecular target: T2, Human VSIG4-L-Fc; assay: BLI binning on hVSIG4-L-Fc, competitor 16E03 first;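 further: normalized to binding of second antibody without first competitor antibody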
[9] = molecular target: T2, Human VSIG4-L-Fc; assay: BLI binning on hVSIG4-L-Fc, competitor 15C03 first;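 further: normalized to binding of second antibody without first competitor antibody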
[10] = molecular target: T3, Cynomolgus Monkey VSIG4-L-His; assay: BLI (Octet), IgG on AHC sensor, antigen 100 nM
[11] = molecular target: T1, Human VSIG4-L-His; assay: BLI (Octet), IgG on AHC sensor, antigen 100 nM
[12] = molecular target: T6, Human VSIG4-S-His (human, UniProt Q9Y279 20-283); assay: BLI (Octet), IgG on AHC sensor, antigen 100 nM
T6 construct: short isoform ECD with His tag; also called hVSIG4-S; VISG4-S-His
T6 sequence: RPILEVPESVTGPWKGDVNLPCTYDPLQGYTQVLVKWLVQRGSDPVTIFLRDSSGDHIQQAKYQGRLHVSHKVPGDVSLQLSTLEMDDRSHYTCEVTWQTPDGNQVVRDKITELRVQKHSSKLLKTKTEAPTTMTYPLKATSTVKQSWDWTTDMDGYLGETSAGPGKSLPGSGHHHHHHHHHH

[13] = molecular target: T2, Human VSIG4-L-Fc; assay: BLI binning on hVSIG4-L-Fc, competitor 13H11 first;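 further: normalized to binding of second antibody without first competitor antibody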
[14] = molecular target: T2, Human VSIG4-L-Fc; assay: BLI binning on hVSIG4-L-Fc, competitor 12A08 first;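 further: normalized to binding of second antibody without first competitor antibody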
[15] = molecular target: T2, Human VSIG4-L-Fc; assay: BLI binning on hVSIG4-L-Fc, competitor 12A12 first;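 further: normalized to binding of second antibody without first competitor antibody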
[16] = molecular target: T2, Human VSIG4-L-Fc; assay: ligand competition ELISA (FJB), blocked ligand iC3b
[17] = molecular target: T2, Human VSIG4-L-Fc; assay: BLI binning on hVSIG4-L-Fc, competitor 15A06 first;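 further: normalized to binding of second antibody without first competitor antibody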
[18] = molecular target: T2, Human VSIG4-L-Fc; assay: ligand competition ELISA (FJB), blocked ligand C3b
[19] = molecular target: T2, Human VSIG4-L-Fc; assay: BLI binning on hVSIG4-L-Fc, competitor 14D12 first;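 further: normalized to binding of second antibody without first competitor antibody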
[20] = molecular target: T5, Human VSIG4-L-CHO (human VSIG4 long …); assay: flow cytometry (FJB), 200 nM mAb, huVSIG4-L CHO-K1 cells
[21] = molecular target: T2, Human VSIG4-L-Fc; assay: ligand blocking of C3b, IgG
[22] = molecular target: T2, Human VSIG4-L-Fc; assay: BLI binning on hVSIG4-L-Fc, competitor 14C05 first;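 further: normalized to binding of second antibody without first competitor antibody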
[23] = molecular target: T3, Cynomolgus Monkey VSIG4-L-His; assay: SPR (FJB)
[24] = molecular target: T1, Human VSIG4-L-His; assay: SPR (FJB)
[25] = molecular target: T5, Human VSIG4-L-CHO (human VSIG4 long …); assay: flow cytometry (FJB), 200 nM mAb, huVSIG4-L CHO-K1 over parental CHO-K1
[26] = molecular target: T3, Cynomolgus Monkey VSIG4-L-His; assay: ELISA, IgG 50 nM on coated antigen;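 further: Mouse-human chimeric IgG4 antibodies incubated 1 h on plate-coated VSIG4 proteins, bound IgG detected with HRP-labelled anti-human IgG, irrelevant antibody and protein as specificity controls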
[27] = molecular target: T2, Human VSIG4-L-Fc; assay: ELISA, IgG 50 nM on coated antigen;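 further: Mouse-human chimeric IgG4 antibodies incubated 1 h on plate-coated VSIG4 proteins, bound IgG detected with HRP-labelled anti-human IgG, irrelevant antibody and protein as specificity controls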
[28] = molecular target: T4, Human VSIG4-S-Fc; assay: ELISA, IgG 50 nM on coated antigen;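 further: Mouse-human chimeric IgG4 antibodies incubated 1 h on plate-coated VSIG4 proteins, bound IgG detected with HRP-labelled anti-human IgG, irrelevant antibody and protein as specificity controls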
[29] = molecular target: T7, Mouse VSIG4-His (mouse); assay: ELISA, IgG 50 nM on coated antigen;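 further: Mouse-human chimeric IgG4 antibodies incubated 1 h on plate-coated VSIG4 proteins, bound IgG detected with HRP-labelled anti-human IgG, irrelevant antibody and protein as specificity controls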
T7 construct: ECD with His tag; also called mVSIG4
T7 chain: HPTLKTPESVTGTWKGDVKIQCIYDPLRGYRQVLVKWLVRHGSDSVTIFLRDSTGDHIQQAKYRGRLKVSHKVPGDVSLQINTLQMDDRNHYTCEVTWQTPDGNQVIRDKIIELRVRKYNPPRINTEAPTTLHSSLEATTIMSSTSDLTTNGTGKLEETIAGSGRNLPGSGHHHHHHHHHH

[30] = molecular target: T2, Human VSIG4-L-Fc; assay: ligand blocking of iC3b, IgG
[31] = molecular target: T2, Human VSIG4-L-Fc; assay: BLI binning on hVSIG4-L-Fc, competitor 16E10 first;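 further: normalized to binding of second antibody without first competitor antibody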
[32] = molecular target: T3, Cynomolgus Monkey VSIG4-L-His; assay: BLI, IgG on AHC sensor, antigen 100 nM
[33] = molecular target: T1, Human VSIG4-L-His; assay: BLI, IgG on AHC sensor, antigen 100 nM

T2 sequence (chain, as listed by the source limits assumed): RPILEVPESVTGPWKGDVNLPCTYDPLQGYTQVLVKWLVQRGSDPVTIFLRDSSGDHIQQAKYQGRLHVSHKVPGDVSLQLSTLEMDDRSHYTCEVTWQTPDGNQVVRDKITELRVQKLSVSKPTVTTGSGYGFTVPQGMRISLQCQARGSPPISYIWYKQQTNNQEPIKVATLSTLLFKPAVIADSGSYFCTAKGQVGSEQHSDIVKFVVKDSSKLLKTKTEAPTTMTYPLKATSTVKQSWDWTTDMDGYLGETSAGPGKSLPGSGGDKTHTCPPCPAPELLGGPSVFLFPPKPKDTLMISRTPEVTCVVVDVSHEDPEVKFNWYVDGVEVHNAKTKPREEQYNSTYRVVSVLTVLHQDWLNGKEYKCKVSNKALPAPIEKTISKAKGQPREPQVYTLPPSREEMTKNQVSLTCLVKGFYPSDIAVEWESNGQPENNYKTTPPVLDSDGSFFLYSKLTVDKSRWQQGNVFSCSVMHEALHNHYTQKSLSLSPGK

koff [1]: 0.0076 s⁻¹
Percent Blocking C3b [2]: 42.7%
ELISA OD450 [3]: 0.05 OD450
ELISA OD450 [4]: 4.2 OD450
ELISA OD450 [5]: 4.05 OD450
B1: 15C03 mouse Fab (periplasmic extract) (Fab, V domains shown)
VH: EVKLLESGPGLVKPSQSLSLTCTVTGYSITSDYAWNWIRQFPGNKLEWMGYISYSGSTRYNPSLKSRISITRDTSNNQFFLQLNSVTTEDTATYYCARSGYAAMDYWGQGTSVTVSS
VL: ENVLTQSPAIMSASPGEKVTMTCRASSSVSSSYLHWYQQKSGASPKLWIYSTSNLASGVPARFSGSGSGTSYSLTISSVEAEDAATYYCQQYSGYPLTFGSGTKLEIK
notes: mouse Fab with C-terminal His6-c-myc tag

koff [1]: 0.045 s⁻¹
Percent Blocking C3b [2]: 46.9%
ELISA OD450 [3]: 4.34 OD450
ELISA OD450 [4]: 4.33 OD450
ELISA OD450 [5]: 0.06 OD450
B2: 13H11 mouse Fab (periplasmic extract) (Fab, V domains shown)
VH: QIQLVQSGPELKKPGETVKISCKASGYTFENFGMNWVKQAPGKGLKWMGWINTYTGEATYADDFKGRFAFSLETSASTAYLQINNLKNEDTATYFCARDGGFRHFDVWGAGTTVTVSS
VL: ETTVTQSPASLSVATGEKVTIRCITSTDIDDDMNWYQQKPGEPPKLLISEGNTLRPGVPSRFSSSGYGTDFVFTIENMLSEDVADYYCLQSDNLPLTFGAGTKLELK
notes: as for B1

EC50 [6]: 2.8 nM
normalized maximum binding nm shift [7]: 0.8 normalized
normalized maximum binding nm shift [8]: 0.68 normalized
normalized maximum binding nm shift [9]: 0.59 normalized
Kd [10]: 16.1 nM
Kd [11]: 21.5 nM
Kd [12]: 28.7 nM
normalized maximum binding nm shift [13]: 0.69 normalized
normalized maximum binding nm shift [14]: 0.73 normalized
normalized maximum binding nm shift [15]: 0.75 normalized
IC50 [16]: 0.6 nM
normalized maximum binding nm shift [17]: 0.75 normalized
IC50 [18]: 0.8 nM
normalized maximum binding nm shift [19]: 0.08 normalized
Binding (200 nM) MFI [20]: 36400 MFI
Percent Blocking C3b [21]: 97%
normalized maximum binding nm shift [22]: 0.12 normalized
Kd [23]: 4.4 nM
Kd [24]: 10.5 nM
Binding (200 nM) Fold-Over-Parental [25]: 112 fold
ELISA OD450 [26]: 4.52 OD450
ELISA OD450 [27]: 4.53 OD450
ELISA OD450 [28]: 3.43 OD450
ELISA OD450 [29]: 0.05 OD450
Percent Blocking iC3b [30]: 98%
normalized maximum binding nm shift [31]: 0.93 normalized
KD relative to parental chimera [32]: 1 fold
KD relative to parental chimera [33]: 1 fold
B3: 14D12 mouse/human chimeric IgG4 (S228P) kappa (antibody, V domains shown)
VH: QIQLVQSGPELKKPGETVKISCKASGYTFTNYGMNWVKQTPGKGLKWMGLINTYTGEPTYADDFKGRFAFSLETSASTAYLQINNLKNEDMATYFCARERIYGYLHYFDYWGQGTTLTVSS
VL: DVVMTQTPASLAVSLGQRATISCKASQSVDYDGDSYMNWYQQKPGQPPKLLIYAASNLESGIPARFSGSGSGTDFTLNIHPVEEEDAATYYCQQSNEDPRTFGGGTKLEIKR
